This note sets out measurements from article PMC1266348, “HIV-1 reverse transcriptase mutations that confer decreased in vitro susceptibility to anti-RT DNA aptamer RT1t49 confer cross resistance to other anti-RT aptamers but not to standard RT inhibitors”.

The series has as its target HIV-1 RT wild type (HIV-1, UniProt P04585;P04585 588-1147;588-1027). The series is described as follows: competition (inhibition of polymerase activity); 6 mM Mg2+; 24 nM template-primer; 80 mM KCl, 50 mM Tris-Cl pH 8.0, 6 mM MgCl2, 1 mM DTT, 0.1 mg/ml BSA, 24 nM template-primer (16S rRNA/VP200), dNTPs, 25 ng RT per 50 ul, 37 C, 15 min; IC50 of p. Particulars: protein: recombinant; copies: 1;1.

As usually defined, the IC50 is the concentration that gives 50% inhibition.

As for ATCCGCCTGATTAGCGATACTCAGAAGGATAAACTGTCCAGAACTTGGA (ssDNA) [RT1t49], the IC50 was 1.5 ± 0.03 nM.
